Paper PMC9352680, “A comprehensive thermodynamic model for RNA binding by the Saccharomyces cerevisiae Pumilio protein PUF4”

T1: PUF4 RNA-binding domain (Saccharomyces cerevisiae, UniProt P25339 537-888)
T1 sequence: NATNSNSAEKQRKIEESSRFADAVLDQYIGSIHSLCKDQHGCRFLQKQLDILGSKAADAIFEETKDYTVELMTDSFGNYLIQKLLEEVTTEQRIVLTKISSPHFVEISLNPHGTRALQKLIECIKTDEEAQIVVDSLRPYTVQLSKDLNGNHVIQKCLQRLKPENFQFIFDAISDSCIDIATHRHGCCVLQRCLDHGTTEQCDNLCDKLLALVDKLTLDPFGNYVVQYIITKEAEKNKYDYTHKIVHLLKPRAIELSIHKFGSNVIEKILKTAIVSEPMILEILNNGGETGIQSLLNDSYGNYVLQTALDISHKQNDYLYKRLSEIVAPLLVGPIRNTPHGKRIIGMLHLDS

B1: Ia_S4_P3E.1_K3.1_C3.1_H3.1_[T1A]_A3.1_F3.1_T3.1 (ssRNA)
RNA: UUUGACAACUGAUCGUUCUUUCUAGUAUAUAUUCUUUCUCGAUCAGUUGUCUUU
B2: Ia_S4_P3E.1_K3.1_C3.1_H3.1_[G2C]_A3.1_F3.1_T3.1 (ssRNA)
RNA: UUUGACAACUGAUCGUUCUUUCUUCUAUAUAUUCUUUCUCGAUCAGUUGUCUUU
B3: Ia_S4_P3E.1_K3.1_C3.1_H3.1_[A4T]_A3.1_F3.1_T3.1 (ssRNA)
RNA: UUUGACAACUGAUCGUUCUUUCUUGUUUAUAUUCUUUCUCGAUCAGUUGUCUUU
B4: Ic_S4_P3E.1_K3.1_C3.1_H3.1_A3.1_[A6C]_F3.1_T3.1 (ssRNA)
RNA: UUUGACAACUGAUCGUUCUUUCUUGUAUCUAUUCUUUCUCGAUCAGUUGUCUUU
B5: Ic_S4_P3E.1_K3.1_C3.1_H3.1_A3.1_[T5C]_F3.1_T3.1 (ssRNA)
RNA: UUUGACAACUGAUCGUUCUUUCUUGUACAUAUUCUUUCUCGAUCAGUUGUCUUU
B6: Ib_S4_P4E.1_K4.1_C4.1_H4.1_A4.1_[T5A]_F4.1_[T8A]_T4.1 (ssRNA)
RNA: UUUGACAACUGAUCGUUCUUUCUUGUAAAUAAUUCUUUCUCGAUCAGUUGUCUUU
B7: Ib_S4_P4E.1_K4.1_C4.1_H4.1_[G2C]_[T3C]_A4.1_F4.1_T4.1 (ssRNA)
RNA: UUUGACAACUGAUCGUUCUUUCUUCCAUAUUAUUCUUUCUCGAUCAGUUGUCUUU
B8: Ib_S4_P4E.1_K4.1_C4.1_H4.1_A4.1_[T5A]_F4.1_[A9G]_T4.1 (ssRNA)
RNA: UUUGACAACUGAUCGUUCUUUCUUGUAAAUUGUUCUUUCUCGAUCAGUUGUCUUU
B9: Ib_S4_P4E.1_K4.1_C4.1_H4.1_[T1A]_[G2T]_A4.1_F4.1_T4.1 (ssRNA)
RNA: UUUGACAACUGAUCGUUCUUUCUAUUAUAUUAUUCUUUCUCGAUCAGUUGUCUUU
B10: Ic_S4_P4E.1_K4.1_C4.1_H4.1_A4.1_[T7C]_F4.1_[A9T]_T4.1 (ssRNA)
RNA: UUUGACAACUGAUCGUUCUUUCUUGUAUACUUUUCUUUCUCGAUCAGUUGUCUUU
B11: Ib_S4_P4E.1_K4.1_C4.1_H4.1_[T1G]_A4.1_[T5C]_F4.1_T4.1 (ssRNA)
RNA: UUUGACAACUGAUCGUUCUUUCUGGUACAUUAUUCUUUCUCGAUCAGUUGUCUUU
B12: Ib_S4_P4E.1_K4.1_C4.1_H4.1_A4.1_[A6C]_F4.1_[T8C]_T4.1 (ssRNA)
RNA: UUUGACAACUGAUCGUUCUUUCUUGUAUCUCAUUCUUUCUCGAUCAGUUGUCUUU
B13: Ib_S4_P4E.1_K4.1_C4.1_H4.1_[G2T]_[A4G]_A4.1_F4.1_T4.1 (ssRNA)
RNA: UUUGACAACUGAUCGUUCUUUCUUUUGUAUUAUUCUUUCUCGAUCAGUUGUCUUU
B14: Ib_S4_P4E.1_K4.1_C4.1_H4.1_[T1G]_[A4T]_A4.1_F4.1_T4.1 (ssRNA)
RNA: UUUGACAACUGAUCGUUCUUUCUGGUUUAUUAUUCUUUCUCGAUCAGUUGUCUUU
B15: Ib_S4_P4E.1_K4.1_C4.1_H4.1_[G2T]_[A4C]_A4.1_F4.1_T4.1 (ssRNA)
RNA: UUUGACAACUGAUCGUUCUUUCUUUUCUAUUAUUCUUUCUCGAUCAGUUGUCUUU
B16: Ib_S4_P4E.1_K4.1_C4.1_H4.1_A4.1_[T7G]_F4.1_[T8C]_T4.1 (ssRNA)
RNA: UUUGACAACUGAUCGUUCUUUCUUGUAUAGCAUUCUUUCUCGAUCAGUUGUCUUU
B17: Ib_S4_P4E.1_K4.1_C4.1_H4.1_[T1G]_[A4G]_A4.1_F4.1_T4.1 (ssRNA)
RNA: UUUGACAACUGAUCGUUCUUUCUGGUGUAUUAUUCUUUCUCGAUCAGUUGUCUUU
B18: Ib_S4_P4E.1_K4.1_C4.1_H4.1_A4.1_[T7A]_F4.1_[T8C]_T4.1 (ssRNA)
RNA: UUUGACAACUGAUCGUUCUUUCUUGUAUAACAUUCUUUCUCGAUCAGUUGUCUUU
B19: Ib_S4_P4E.1_K4.1_C4.1_H4.1_[T1G]_[G2T]_A4.1_F4.1_T4.1 (ssRNA)
RNA: UUUGACAACUGAUCGUUCUUUCUGUUAUAUUAUUCUUUCUCGAUCAGUUGUCUUU
B20: Ib_S4_P4E.1_K4.1_C4.1_H4.1_[T3C]_[A4C]_A4.1_F4.1_T4.1 (ssRNA)
RNA: UUUGACAACUGAUCGUUCUUUCUUGCCUAUUAUUCUUUCUCGAUCAGUUGUCUUU
B21: Ib_S4_P4E.1_K4.1_C4.1_H4.1_[T1C]_[G2T]_A4.1_F4.1_T4.1 (ssRNA)
RNA: UUUGACAACUGAUCGUUCUUUCUCUUAUAUUAUUCUUUCUCGAUCAGUUGUCUUU
B22: Ic_S4_P4E.1_K4.1_C4.1_H4.1_A4.1_[T5C]_F4.1_[A9T]_T4.1 (ssRNA)
RNA: UUUGACAACUGAUCGUUCUUUCUUGUACAUUUUUCUUUCUCGAUCAGUUGUCUUU
B23: Ic_S4_P4E.1_K4.1_C4.1_H4.1_A4.1_[T7G]_F4.1_[A9G]_T4.1 (ssRNA)
RNA: UUUGACAACUGAUCGUUCUUUCUUGUAUAGUGUUCUUUCUCGAUCAGUUGUCUUU
B24: Ib_S4_P4E.1_K4.1_C4.1_H4.1_A4.1_[A6T]_F4.1_[T8C]_T4.1 (ssRNA)
RNA: UUUGACAACUGAUCGUUCUUUCUUGUAUUUCAUUCUUUCUCGAUCAGUUGUCUUU
B25: Ib_S4_P4E.1_K4.1_C4.1_H4.1_[T1G]_A4.1_[A6T]_F4.1_T4.1 (ssRNA)
RNA: UUUGACAACUGAUCGUUCUUUCUGGUAUUUUAUUCUUUCUCGAUCAGUUGUCUUU
B26: Ib_S4_P4E.1_K4.1_C4.1_H4.1_[T1A]_[A4T]_A4.1_F4.1_T4.1 (ssRNA)
RNA: UUUGACAACUGAUCGUUCUUUCUAGUUUAUUAUUCUUUCUCGAUCAGUUGUCUUU
B27: Ib_S4_P4E.1_K4.1_C4.1_H4.1_A4.1_[A6T]_F4.1_[A9C]_T4.1 (ssRNA)
RNA: UUUGACAACUGAUCGUUCUUUCUUGUAUUUUCUUCUUUCUCGAUCAGUUGUCUUU
B28: Ib_S4_P4E.1_K4.1_C4.1_H4.1_A4.1_[A6T]_F4.1_[A9G]_T4.1 (ssRNA)
RNA: UUUGACAACUGAUCGUUCUUUCUUGUAUUUUGUUCUUUCUCGAUCAGUUGUCUUU
B29: Ib_S4_P4E.1_K4.1_C4.1_H4.1_[T1G]_[A4C]_A4.1_F4.1_T4.1 (ssRNA)
RNA: UUUGACAACUGAUCGUUCUUUCUGGUCUAUUAUUCUUUCUCGAUCAGUUGUCUUU
B30: Ib_S4_P4E.1_K4.1_C4.1_H4.1_[G2T]_[T3C]_A4.1_F4.1_T4.1 (ssRNA)
RNA: UUUGACAACUGAUCGUUCUUUCUUUCAUAUUAUUCUUUCUCGAUCAGUUGUCUUU
B31: Ib_S4_P4E.1_K4.1_C4.1_H4.1_A4.1_[T7C]_F4.1_[T8A]_T4.1 (ssRNA)
RNA: UUUGACAACUGAUCGUUCUUUCUUGUAUACAAUUCUUUCUCGAUCAGUUGUCUUU
B32: Ib_S4_P4E.1_K4.1_C4.1_H4.1_A4.1_[A6G]_F4.1_[T8C]_T4.1 (ssRNA)
RNA: UUUGACAACUGAUCGUUCUUUCUUGUAUGUCAUUCUUUCUCGAUCAGUUGUCUUU
B33: Ib_S4_P4E.1_K4.1_C4.1_H4.1_[T1C]_A4.1_[A6G]_F4.1_T4.1 (ssRNA)
RNA: UUUGACAACUGAUCGUUCUUUCUCGUAUGUUAUUCUUUCUCGAUCAGUUGUCUUU
B34: Ib_S4_P4E.1_K4.1_C4.1_H4.1_[T1C]_[G2A]_A4.1_F4.1_T4.1 (ssRNA)
RNA: UUUGACAACUGAUCGUUCUUUCUCAUAUAUUAUUCUUUCUCGAUCAGUUGUCUUU
B35: Ib_S4_P4E.1_K4.1_C4.1_H4.1_[G2A]_[A4G]_A4.1_F4.1_T4.1 (ssRNA)
RNA: UUUGACAACUGAUCGUUCUUUCUUAUGUAUUAUUCUUUCUCGAUCAGUUGUCUUU
B36: Ib_S4_P4E.1_K4.1_C4.1_H4.1_A4.1_[A6G]_F4.1_[A9C]_T4.1 (ssRNA)
RNA: UUUGACAACUGAUCGUUCUUUCUUGUAUGUUCUUCUUUCUCGAUCAGUUGUCUUU
B37: Ib_S4_P4E.1_K4.1_C4.1_H4.1_[T1C]_A4.1_[T5A]_F4.1_T4.1 (ssRNA)
RNA: UUUGACAACUGAUCGUUCUUUCUCGUAAAUUAUUCUUUCUCGAUCAGUUGUCUUU
B38: Ib_S4_P4E.1_K4.1_C4.1_H4.1_[T1A]_[G2C]_A4.1_F4.1_T4.1 (ssRNA)
RNA: UUUGACAACUGAUCGUUCUUUCUACUAUAUUAUUCUUUCUCGAUCAGUUGUCUUU
B39: Ib_S4_P4E.1_K4.1_C4.1_H4.1_[T1C]_[A4T]_A4.1_F4.1_T4.1 (ssRNA)
RNA: UUUGACAACUGAUCGUUCUUUCUCGUUUAUUAUUCUUUCUCGAUCAGUUGUCUUU
B40: Ib_S4_P4E.1_K4.1_C4.1_H4.1_[G2A]_[A4T]_A4.1_F4.1_T4.1 (ssRNA)
RNA: UUUGACAACUGAUCGUUCUUUCUUAUUUAUUAUUCUUUCUCGAUCAGUUGUCUUU
B41: Ic_S4_P4E.1_K4.1_C4.1_H4.1_A4.1_[A6C]_F4.1_[A9G]_T4.1 (ssRNA)
RNA: UUUGACAACUGAUCGUUCUUUCUUGUAUCUUGUUCUUUCUCGAUCAGUUGUCUUU
B42: Ib_S4_P4E.1_K4.1_C4.1_H4.1_A4.1_[T7A]_F4.1_[T8A]_T4.1 (ssRNA)
RNA: UUUGACAACUGAUCGUUCUUUCUUGUAUAAAAUUCUUUCUCGAUCAGUUGUCUUU
B43: Ib_S4_P4E.1_K4.1_C4.1_H4.1_[T1A]_[T3C]_A4.1_F4.1_T4.1 (ssRNA)
RNA: UUUGACAACUGAUCGUUCUUUCUAGCAUAUUAUUCUUUCUCGAUCAGUUGUCUUU
B44: Ib_S4_P4E.1_K4.1_C4.1_H4.1_A4.1_[T7C]_F4.1_[A9C]_T4.1 (ssRNA)
RNA: UUUGACAACUGAUCGUUCUUUCUUGUAUACUCUUCUUUCUCGAUCAGUUGUCUUU
B45: Ib_S4_P4E.1_K4.1_C4.1_H4.1_[T3G]_[A4T]_A4.1_F4.1_T4.1 (ssRNA)
RNA: UUUGACAACUGAUCGUUCUUUCUUGGUUAUUAUUCUUUCUCGAUCAGUUGUCUUU
B46: Ib_S4_P4E.1_K4.1_C4.1_H4.1_[T1A]_A4.1_[T5A]_F4.1_T4.1 (ssRNA)
RNA: UUUGACAACUGAUCGUUCUUUCUAGUAAAUUAUUCUUUCUCGAUCAGUUGUCUUU
B47: Ib_S4_P4E.1_K4.1_C4.1_H4.1_A4.1_[A6C]_F4.1_[A9T]_T4.1 (ssRNA)
RNA: UUUGACAACUGAUCGUUCUUUCUUGUAUCUUUUUCUUUCUCGAUCAGUUGUCUUU
B48: Ib_S4_P4E.1_K4.1_C4.1_H4.1_[T1C]_[G2C]_A4.1_F4.1_T4.1 (ssRNA)
RNA: UUUGACAACUGAUCGUUCUUUCUCCUAUAUUAUUCUUUCUCGAUCAGUUGUCUUU

Biological target: T1, PUF4 RNA-binding domain
Assay: Mg; RNA-MaP; 20 mM Na-HEPES pH 7.4, 30 mM KOAc, 0.75 mM MgCl2, 0.1% Tween-20, 5% glycerol, 0.1 mg/mL BSA, 2 mM DTT; 25 C; 0.0125-409.6 nM protein
Details: tags: N-His6-TEV cleaved; C-SNAP kept, Cy3B-labelled; label: tethered on chip by stalled RNA polymerase

Binder | Kd [nM]
B1 | 819
B2 | 360
B3 | 86.8
B4 | 10.1
B5 | 1.93
B6 | 27.4
B7 | 2090
B8 | 19.7
B9 | 686
B10 | 7
B11 | 42.9
B12 | 22.1
B13 | 7.27
B14 | 1600
B15 | > 2300
B16 | 51.1
B17 | 40.1
B18 | 19.6
B19 | 41.2
B20 | 814
B21 | 401
B22 | 1.94
B23 | 13.5
B24 | 84.2

Binder | Kd [nM]
B25 | 971
B26 | > 2300
B27 | 17.8
B28 | 8.2
B29 | > 2300
B30 | 2000
B31 | 18.4
B32 | 136
B33 | 700
B34 | 168
B35 | 15.2
B36 | 15.5
B37 | 182
B38 | 481
B39 | 615
B40 | 669
B41 | 11.3
B42 | 29.8
B43 | 1880
B44 | 10.1
B45 | 1280
B46 | 858
B47 | 10.8
B48 | 331
